Measured values as given in article PMC11587947.

How the values were obtained:
Assay in all cases: turbidimetry of self-assembly
[1] = target: HIV-1 capsid protein CA mutant E45A (HIV-1 (strain BH10))
[2] = target: HIV-1 capsid protein CA mutant E180A (HIV-1 (strain BH10))
[3] = target: HIV-1 capsid protein CA mutant P38A (HIV-1 (strain BH10))
[4] = target: HIV-1 capsid protein CA mutant Q63A (HIV-1 (strain BH10))
[5] = target: HIV-1 capsid protein CA mutant Q192A (HIV-1 (strain BH10))
[6] = target: HIV-1 capsid protein CA mutant S178A (HIV-1 (strain BH10))
[7] = target: HIV-1 capsid protein CA mutant V165A (HIV-1 (strain BH10))

For “HIV-1 capsid protein CA mutant E45A (natural protein)”, the growth rate constant kg relative to wt [1] was 11.5 fold of wt.
In the case of “HIV-1 capsid protein CA mutant E180A (natural protein)”, the growth rate constant kg relative to wt [2] was 0.8 fold of wt.
With “HIV-1 capsid protein CA mutant P38A (natural protein)” the growth rate constant kg relative to wt [3] was 18.5 fold of wt.
“HIV-1 capsid protein CA mutant Q63A (natural protein)” was tested, and the growth rate constant kg relative to wt [4] was 0.6 fold of wt.
With “HIV-1 capsid protein CA mutant Q192A (natural protein)” the growth rate constant kg relative to wt [5] was 2.7 fold of wt.
With “HIV-1 capsid protein CA mutant S178A (natural protein)” the growth rate constant kg relative to wt [6] was 5.6 fold of wt.
In the case of “HIV-1 capsid protein CA mutant V165A (natural protein)”, the growth rate constant kg relative to wt [7] was 28 fold of wt and the nucleation rate constant kn relative to wt [7] was > 100 fold of wt.
